Stoichiometry N (Ru-MtrC per MtrAB) data for 1 substance are collected here from paper PMC8415449.

The target of the test is MtrAB complex (Shewanella oneidensis MR-1). Briefly: AUC; sedimentation equilibrium (SE-AUC), 20°C, 8,000, 10,000 and 12,000 rpm, absorbance at 410 nm; 50 mM sodium phosphate, 50 mM NaCl, 0.1% (v/v) Triton X-100, pH 7.5; 0.4 uM single proteins, 0.25 uM + 0.25 uM mixture; fits to a single non-interacting species.

In the case of “Ru-MtrC (soluble Y657C MtrC labelled at Cys657 with a Ru(II)-bipyridine dye) (from UniProt Q8EG34 26-671) (natural protein)”, the stoichiometry N (Ru-MtrC per MtrAB) came to 1.
